In article PMC4600761:

What was measured:
[1] = biological target: Syx-mtq (mTurquoise fused to the C terminus of syntaxin1A) (rat) (UniProt P32851); assay: FRET or BRET; two-photon FLIM, time-lapse (18 s accumulation); rat cortical neurons in dissociated culture during 300 mM sucrose stimulation; A1 from decay curve fitting or from average lifetime (τ1 0.5 ns assumed)
[2] = biological target: Syx-mtq2 (mTurquoise2 fused to the C terminus of syntaxin1A) (rat) (UniProt P32851); assay: FRET or BRET; two-photon FLIM, A1 fraction; Schaffer collateral boutons in rat hippocampal slice culture, probes by AAV1, during 300 mM sucrose stimulation
[3] = biological target: Syx-mtq2 (mTurquoise2 fused to the C terminus of syntaxin1A) (rat) (UniProt P32851); assay: FRET or BRET; two-photon FLIM, A1 fraction; Schaffer collateral boutons and axons in the CA1 region of rat hippocampal slice culture, probes by AAV1, resting
[4] = biological target: Syx-mtq (mTurquoise fused to the C terminus of syntaxin1A) (rat) (UniProt P32851); assay: FRET or BRET; two-photon FLIM of the mtq donor; fast decay component (A1 fraction) taken as the binding fraction of the donor; live rat cortical neurons in dissociated culture, lipofected, resting; boutons and axons
[5] = biological target: mtq-Syx (mTurquoise fused to the N terminus of syntaxin1A) (rat) (UniProt P32851); assay: FRET or BRET; two-photon FLIM, A1 fraction; plasma membrane of β cells in mouse islets of Langerhans, probes by lentivirus, resting state
[6] = biological target: mtq-SNAP25b (mTurquoise fused to the N terminus of synaptosomal-associated protein 25b) (mouse) (UniProt P60879); assay: as above
[7] = biological target: mtq-Syx (mTurquoise fused to the N terminus of syntaxin1A) (rat) (UniProt P32851); assay: FRET or BRET
[8] = biological target: mtq-SNAP25b (mTurquoise fused to the N terminus of synaptosomal-associated protein 25b) (mouse) (UniProt P60879); assay: FRET or BRET
[9] = biological target: mtq-Syx (mTurquoise fused to the N terminus of syntaxin1A) (rat) (UniProt P32851); assay: FRET or BRET; two-photon FLIM, A1 fraction; rat cortical neurons in dissociated culture after chemical fixation and counterstaining with anti-synaptophysin antibody
[10] = biological target: mtq2-Syx (mTurquoise2 fused to the N terminus of syntaxin1A) (rat) (UniProt P32851); assay: FRET or BRET; two-photon FLIM, A1 fraction; Schaffer collateral boutons and axons in the CA1 region of rat hippocampal slice culture, probes by AAV1, resting
[11] = biological target: mtq-SNAP25b (mTurquoise fused to the N terminus of synaptosomal-associated protein 25b) (mouse) (UniProt P60879); assay: FRET or BRET; two-photon FLIM, time-lapse (1.8 s), A1 from average lifetime (τ1 0.5 ns assumed); β cells in mouse islets stimulated with 16 mM glucose, region of 0.5 μm diameter around single exocytotic events
[12] = biological target: mtq-Syx (mTurquoise fused to the N terminus of syntaxin1A) (rat) (UniProt P32851); assay: FRET or BRET; two-photon FLIM of the mtq donor; fast decay component (A1 fraction) taken as the binding fraction of the donor; live rat cortical neurons in dissociated culture, lipofected, resting; boutons and axons
[13] = biological target: mtq-SNAP25b (mTurquoise fused to the N terminus of synaptosomal-associated protein 25b) (mouse) (UniProt P60879); assay: as above

mtq-SNAP25b (mTurquoise fused to the N terminus of synaptosomal-associated protein 25b) (mouse), sequence (P60879 whole entry, the tested form may be a part): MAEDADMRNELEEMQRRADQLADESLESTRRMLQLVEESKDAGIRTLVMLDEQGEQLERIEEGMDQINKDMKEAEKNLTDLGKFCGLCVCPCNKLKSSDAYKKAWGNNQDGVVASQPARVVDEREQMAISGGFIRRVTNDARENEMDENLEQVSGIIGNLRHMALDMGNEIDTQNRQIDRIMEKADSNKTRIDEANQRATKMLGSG
mtq-Syx (mTurquoise fused to the N terminus of syntaxin1A) (rat), sequence (P32851 whole entry, the tested form may be a part): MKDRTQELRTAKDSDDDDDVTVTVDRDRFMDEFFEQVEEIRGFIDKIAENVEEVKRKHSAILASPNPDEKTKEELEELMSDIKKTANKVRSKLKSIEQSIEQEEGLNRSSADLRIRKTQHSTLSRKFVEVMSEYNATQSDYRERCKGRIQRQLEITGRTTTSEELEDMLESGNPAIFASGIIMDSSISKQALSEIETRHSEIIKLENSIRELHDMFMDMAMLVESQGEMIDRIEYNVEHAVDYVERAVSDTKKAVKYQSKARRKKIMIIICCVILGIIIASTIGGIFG
Syx-mtq (mTurquoise fused to the C terminus of syntaxin1A) (rat), sequence (P32851 whole entry, the tested form may be a part): as above
mtq2-Syx (mTurquoise2 fused to the N terminus of syntaxin1A) (rat), sequence (P32851 whole entry, the tested form may be a part): as above
Syx-mtq2 (mTurquoise2 fused to the C terminus of syntaxin1A) (rat), sequence (P32851 whole entry, the tested form may be a part): as above

## VAMP2-Ven (Venus fused to the C terminus of VAMP2) (from UniProt P63045 1-116) (natural protein)
[1]
  increase in the A1 fraction in boutons on 300 mM sucrose (average lifetime): 12.9%
  increase in the A1 fraction in boutons on 300 mM sucrose (decay curve fitting): 11.8%
[2]
  A1 fraction (FRET of cis-complexes), boutons, during sucrose stimulation: 13.6%
[3]
  A1 fraction (FRET of cis-complexes), boutons, resting state: 3.7%
[4]
  A1 fraction (binding fraction, cis-complex), axons: 21.5%
  A1 fraction (binding fraction, cis-complex), boutons: 24.7%

## Ven-VAMP2 (Venus fused to the N terminus of vesicle-associated membrane protein 2) (from UniProt P63045 1-116) (natural protein)
[5]
  A1 fraction (binding fraction), plasma membrane of resting β cells: < 2%
[6]
  A1 fraction (binding fraction), plasma membrane of resting β cells: < 2%
[7]
  other: 16.3%
[8]
  other: 14.5%
[9]
  A1 fraction (binding fraction), boutons, after fixation: 33.2%
  A1 fraction (binding fraction), pixels in axons: 15.6%
  A1 fraction (binding fraction), pixels of boutons negative for synaptophysin: 17.4%
  A1 fraction (binding fraction), pixels of boutons positive for synaptophysin: 38.8%
[10]
  mean trans-SNARE fraction in boutons (A1b−A1a): 11.9%
  trans-SNARE fraction in the active zone (A1s–A1a), spines with volumes >0.25: 27.7%
[11]
  peak A1 fraction (binding fraction) before single exocytotic events, averaged traces of 61 events, 16 mM glucose: 8.3%
[12]
  A1 fraction (binding fraction), axons: 22.4%
  A1 fraction (binding fraction), boutons, live: 34.1%
  trans-SNARE fraction in each bouton (A1b−A1a): 11.6%
[13]
  A1 fraction (binding fraction), axons: 22.7%
  A1 fraction (binding fraction), boutons: 36.7%
